Results taken from IntAct's records for PubMed 39009827.

B1: Radial spoke head protein 4 homolog A (Homo sapiens), Q5TD94 (parent)
chain: MEDSTSPKQEKENQEELGETRRPWEGKTAASPQYSEPESSEPLEAKQGPETGRQSRSSRPWSPQSRAKTPLGGPAGPETSSPAPVSPREPSSSPSPLAPARQDLAAPPQSDRTTSVIPEAGTPYPDPLEQSSDKRESTPHHTSQSEGNTFQQSQQPKPHLCGRRDVSYNNAKQKELRFDVFQEEDSNSDYDLQQPAPGGSEVAPSMLEITIQNAKAYLLKTSSNSGFNLYDHLSNMLTKILNERPENAVDIFENISQDVKMAHFSKKFDALQNENELLPTYEIAEKQKALFLQGHLEGVDQELEDEIAENALPNVMESAFYFEQAGVGLGTDETYRIFLALKQLTDTHPIQRCRFWGKILGLEMNYIVAEVEFREGEDEEEVEEEDVAEERDNGESEAHEDEEDELPKSFYKAPQAIPKEESRTGANKYVYFVCNEPGRPWVKLPPVIPAQIVIARKIKKFFTGRLDAPIISYPPFPGNESNYLRAQIARISAGTHVSPLGFYQFGEEEGEEEEEAEGGRNSFEENPDFEGIQVIDLVESLSNWVHHVQHILSQGRCNWFNSIQKNEEEEEEEDEEKDDSDYIEQEVGLPLLTPISEDLEIQNIPPWTTRLSSNLIPQYAIAVLQSNLWPGAYAFSNGKKFENFYIGWGHKYSPDNYTPPVPPPVYQEYPSGPEITEMDDPSVEEEQAFRAAQEAVLLAAENEESEEDEDEEDDYD
B2: Myosin-9 (Homo sapiens), P35579 (parent)
chain: MAQQAADKYLYVDKNFINNPLAQADWAAKKLVWVPSDKSGFEPASLKEEVGEEAIVELVENGKKVKVNKDDIQKMNPPKFSKVEDMAELTCLNEASVLHNLKERYYSGLIYTYSGLFCVVINPYKNLPIYSEEIVEMYKGKKRHEMPPHIYAITDTAYRSMMQDREDQSILCTGESGAGKTENTKKVIQYLAYVASSHKSKKDQGELERQLLQANPILEAFGNAKTVKNDNSSRFGKFIRINFDVNGYIVGANIETYLLEKSRAIRQAKEERTFHIFYYLLSGAGEHLKTDLLLEPYNKYRFLSNGHVTIPGQQDKDMFQETMEAMRIMGIPEEEQMGLLRVISGVLQLGNIVFKKERNTDQASMPDNTAAQKVSHLLGINVTDFTRGILTPRIKVGRDYVQKAQTKEQADFAIEALAKATYERMFRWLVLRINKALDKTKRQGASFIGILDIAGFEIFDLNSFEQLCINYTNEKLQQLFNHTMFILEQEEYQREGIEWNFIDFGLDLQPCIDLIEKPAGPPGILALLDEECWFPKATDKSFVEKVMQEQGTHPKFQKPKQLKDKADFCIIHYAGKVDYKADEWLMKNMDPLNDNIATLLHQSSDKFVSELWKDVDRIIGLDQVAGMSETALPGAFKTRKGMFRTVGQLYKEQLAKLMATLRNTNPNFVRCIIPNHEKKAGKLDPHLVLDQLRCNGVLEGIRICRQGFPNRVVFQEFRQRYEILTPNSIPKGFMDGKQACVLMIKALELDSNLYRIGQSKVFFRAGVLAHLEEERDLKITDVIIGFQACCRGYLARKAFAKRQQQLTAMKVLQRNCAAYLKLRNWQWWRLFTKVKPLLQVSRQEEEMMAKEEELVKVREKQLAAENRLTEMETLQSQLMAEKLQLQEQLQAETELCAEAEELRARLTAKKQELEEICHDLEARVEEEEERCQHLQAEKKKMQQNIQELEEQLEEEESARQKLQLEKVTTEAKLKKLEEEQIILEDQNCKLAKEKKLLEDRIAEFTTNLTEEEEKSKSLAKLKNKHEAMITDLEERLRREEKQRQELEKTRRKLEGDSTDLSDQIAELQAQIAELKMQLAKKEEELQAALARVEEEAAQKNMALKKIRELESQISELQEDLESERASRNKAEKQKRDLGEELEALKTELEDTLDSTAAQQELRSKREQEVNILKKTLEEEAKTHEAQIQEMRQKHSQAVEELAEQLEQTKRVKANLEKAKQTLENERGELANEVKVLLQGKGDSEHKRKKVEAQLQELQVKFNEGERVRTELADKVTKLQVELDNVTGLLSQSDSKSSKLTKDFSALESQLQDTQELLQEENRQKLSLSTKLKQVEDEKNSFREQLEEEEEAKHNLEKQIATLHAQVADMKKKMEDSVGCLETAEEVKRKLQKDLEGLSQRHEEKVAAYDKLEKTKTRLQQELDDLLVDLDHQRQSACNLEKKQKKFDQLLAEEKTISAKYAEERDRAEAEAREKETKALSLARALEEAMEQKAELERLNKQFRTEMEDLMSSKDDVGKSVHELEKSKRALEQQVEEMKTQLEELEDELQATEDAKLRLEVNLQAMKAQFERDLQGRDEQSEEKKKQLVRQVREMEAELEDERKQRSMAVAARKKLEMDLKDLEAHIDSANKNRDEAIKQLRKLQAQMKDCMRELDDTRASREEILAQAKENEKKLKSMEAEMIQLQEELAAAERAKRQAQQERDELADEIANSSGKGALALEEKRRLEARIAQLEEELEEEQGNTELINDRLKKANLQIDQINTDLNLERSHAQKNENARQQLERQNKELKVKLQEMEGTVKSKYKASITALEAKIAQLEEQLDNETKERQAACKQVRRTEKKLKDVLLQVDDERRNAEQYKDQADKASTRLKQLKRQLEEAEEEAQRANASRRKLQRELEDATETADAMNREVSSLKNKLRRGDLPFVVPRRMARKGAGDGSDEEVDGKADGAEAKPAE
partner: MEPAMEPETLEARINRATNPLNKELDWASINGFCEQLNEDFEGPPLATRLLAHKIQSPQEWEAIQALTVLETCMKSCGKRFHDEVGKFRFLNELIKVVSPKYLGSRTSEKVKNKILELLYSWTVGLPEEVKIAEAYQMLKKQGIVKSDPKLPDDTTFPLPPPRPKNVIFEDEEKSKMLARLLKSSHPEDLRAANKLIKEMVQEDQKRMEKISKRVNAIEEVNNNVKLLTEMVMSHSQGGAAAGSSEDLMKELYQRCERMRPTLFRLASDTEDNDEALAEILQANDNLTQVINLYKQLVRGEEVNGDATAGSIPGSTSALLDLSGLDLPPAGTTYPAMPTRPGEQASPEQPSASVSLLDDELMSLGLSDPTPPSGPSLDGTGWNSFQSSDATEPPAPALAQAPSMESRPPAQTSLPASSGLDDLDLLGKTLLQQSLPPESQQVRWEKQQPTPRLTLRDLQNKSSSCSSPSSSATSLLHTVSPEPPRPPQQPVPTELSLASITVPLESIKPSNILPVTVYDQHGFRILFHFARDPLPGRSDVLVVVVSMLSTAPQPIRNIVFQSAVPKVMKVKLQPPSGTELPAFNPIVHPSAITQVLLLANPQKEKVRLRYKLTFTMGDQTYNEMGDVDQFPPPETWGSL
B3: Zinc finger protein 526 (Homo sapiens), Q8TF50 (parent)
chain: MAEVVAEVAEMPTQMSPGAVEMSTPMSAEMMEMSTEVTEMTPGEALASSLFFQHHQFMCSECGSLYNTLEEVLSHQEQHMLAVSEEEALTTQNVGLEPELVPGAEGPFQCGECSQLILSPGELLAHQDAHLRESANQIQYQCWDCQELFPSPELWVAHRKAQHLSATVAEPPVPPPLPPPTPLPPPSPPSEVKMEPYECPECSTLCATPEEFLEHQGTHFDSLEKEERNGLEEEEEDDEEDEEDDEEMEDEEAMAEVGDDAVGGDESTAGWAQGCGDCPQHQPSAGARRQHRRTAHSPASATHPFHCSQCQRSFSSANRLQAHGRAHVGGTHECTTCSKVFKKAASLEQHLRLHRGEARYLCVDCGRGFGTELTLVAHRRAHTANPLHRCRCGKTFSNMTKFLYHRRTHAGKSGAPPTGATAPPAPAEPTPPPPPPAPPAQLPCPQCSKSFASASRLSRHRRAVHGPPERRHRCGVCGKGFKKLIHVRNHLRTHTGERPFQCHSCGKTFASLANLSRHQLTHTGARPYQCLDCGKRFTQSSNLQQHRRLHLRPVAFARAPRLPITGLYNKSPYYCGTCGRWFRAMAGLRLHQRVHARARTLTLQPPRSPSPAPPPPPEPQQTIMCTELGETIAIIETSQPLALEDTLQLCQAALGASEAGGLLQLDTAFV
B4: Tyrosine-protein phosphatase non-receptor type 22 (Homo sapiens), Q9Y2R2 (parent)
chain: MDQREILQKFLDEAQSKKITKEEFANEFLKLKRQSTKYKADKTYPTTVAEKPKNIKKNRYKDILPYDYSRVELSLITSDEDSSYINANFIKGVYGPKAYIATQGPLSTTLLDFWRMIWEYSVLIIVMACMEYEMGKKKCERYWAEPGEMQLEFGPFSVSCEAEKRKSDYIIRTLKVKFNSETRTIYQFHYKNWPDHDVPSSIDPILELIWDVRCYQEDDSVPICIHCSAGCGRTGVICAIDYTWMLLKDGIIPENFSVFSLIREMRTQRPSLVQTQEQYELVYNAVLELFKRQMDVIRDKHSGTESQAKHCIPEKNHTLQADSYSPNLPKSTTKAAKMMNQQRTKMEIKESSSFDFRTSEISAKEELVLHPAKSSTSFDFLELNYSFDKNADTTMKWQTKAFPIVGEPLQKHQSLDLGSLLFEGCSNSKPVNAAGRYFNSKVPITRTKSTPFELIQQRETKEVDSKENFSYLESQPHDSCFVEMQAQKVMHVSSAELNYSLPYDSKHQIRNASNVKHHDSSALGVYSYIPLVENPYFSSWPPSGTSSKMSLDLPEKQDGTVFPSSLLPTSSTSLFSYYNSHDSLSLNSPTNISSLLNQESAVLATAPRIDDEIPPPLPVRTPESFIVVEEAGEFSPNVPKSLSSAVKVKIGTSLEWGGTSEPKKFDDSVILRPSKSVKLRSPKSELHQDRSSPPPPLPERTLESFFLADEDCMQAQSIETYSTSYPDTMENSTSSKQTLKTPGKSFTRSKSLKILRNMKKSICNSCPPNKPAESVQSNNSSSFLNFGFANRFSKPKGPRNPPPTWNI
B5: Protein patched homolog 1 (Homo sapiens), Q13635 (parent)
chain: MASAGNAAEPQDRGGGGSGCIGAPGRPAGGGRRRRTGGLRRAAAPDRDYLHRPSYCDAAFALEQISKGKATGRKAPLWLRAKFQRLLFKLGCYIQKNCGKFLVVGLLIFGAFAVGLKAANLETNVEELWVEVGGRVSRELNYTRQKIGEEAMFNPQLMIQTPKEEGANVLTTEALLQHLDSALQASRVHVYMYNRQWKLEHLCYKSGELITETGYMDQIIEYLYPCLIITPLDCFWEGAKLQSGTAYLLGKPPLRWTNFDPLEFLEELKKINYQVDSWEEMLNKAEVGHGYMDRPCLNPADPDCPATAPNKNSTKPLDMALVLNGGCHGLSRKYMHWQEELIVGGTVKNSTGKLVSAHALQTMFQLMTPKQMYEHFKGYEYVSHINWNEDKAAAILEAWQRTYVEVVHQSVAQNSTQKVLSFTTTTLDDILKSFSDVSVIRVASGYLLMLAYACLTMLRWDCSKSQGAVGLAGVLLVALSVAAGLGLCSLIGISFNAATTQVLPFLALGVGVDDVFLLAHAFSETGQNKRIPFEDRTGECLKRTGASVALTSISNVTAFFMAALIPIPALRAFSLQAAVVVVFNFAMVLLIFPAILSMDLYRREDRRLDIFCCFTSPCVSRVIQVEPQAYTDTHDNTRYSPPPPYSSHSFAHETQITMQSTVQLRTEYDPHTHVYYTTAEPRSEISVQPVTVTQDTLSCQSPESTSSTRDLLSQFSDSSLHCLEPPCTKWTLSSFAEKHYAPFLLKPKAKVVVIFLFLGLLGVSLYGTTRVRDGLDLTDIVPRETREYDFIAAQFKYFSFYNMYIVTQKADYPNIQHLLYDLHRSFSNVKYVMLEENKQLPKMWLHYFRDWLQGLQDAFDSDWETGKIMPNNYKNGSDDGVLAYKLLVQTGSRDKPIDISQLTKQRLVDADGIINPSAFYIYLTAWVSNDPVAYAASQANIRPHRPEWVHDKADYMPETRLRIPAAEPIEYAQFPFYLNGLRDTSDFVEAIEKVRTICSNYTSLGLSSYPNGYPFLFWEQYIGLRHWLLLFISVVLACTFLVCAVFLLNPWTAGIIVMVLALMTVELFGMMGLIGIKLSAVPVVILIASVGIGVEFTVHVALAFLTAIGDKNRRAVLALEHMFAPVLDGAVSTLLGVLMLAGSEFDFIVRYFFAVLAILTILGVLNGLVLLPVLLSFFGPYPEVSPANGLNRLPTPSPEPPPSVVRFAMPPGHTHSGSDSSDSEYSSQTTVSGLSEELRHYEAQQGAGGPAHQVIVEATENPVFAHSTVVHPESRHHPPSNPRQQPHLDSGSLPPGRQGQQPRRDPPREGLWPPPYRPRRDAFEISTEGHSGPSNRARWGPRGARSHNPRNPASTAMGSSVPGYCQPITTVTASASVTVAVHPPPVPGPGRNPRGGLCPGYPETDHGLFEDPHVPFHVRCERRDSKVEVIELQDVECEERPRGSSSN

Variants of: B1
Details: with nedd4_human NEDD4, P46934
Sequence of nedd4_human NEDD4, P46934 (P46934 whole entry): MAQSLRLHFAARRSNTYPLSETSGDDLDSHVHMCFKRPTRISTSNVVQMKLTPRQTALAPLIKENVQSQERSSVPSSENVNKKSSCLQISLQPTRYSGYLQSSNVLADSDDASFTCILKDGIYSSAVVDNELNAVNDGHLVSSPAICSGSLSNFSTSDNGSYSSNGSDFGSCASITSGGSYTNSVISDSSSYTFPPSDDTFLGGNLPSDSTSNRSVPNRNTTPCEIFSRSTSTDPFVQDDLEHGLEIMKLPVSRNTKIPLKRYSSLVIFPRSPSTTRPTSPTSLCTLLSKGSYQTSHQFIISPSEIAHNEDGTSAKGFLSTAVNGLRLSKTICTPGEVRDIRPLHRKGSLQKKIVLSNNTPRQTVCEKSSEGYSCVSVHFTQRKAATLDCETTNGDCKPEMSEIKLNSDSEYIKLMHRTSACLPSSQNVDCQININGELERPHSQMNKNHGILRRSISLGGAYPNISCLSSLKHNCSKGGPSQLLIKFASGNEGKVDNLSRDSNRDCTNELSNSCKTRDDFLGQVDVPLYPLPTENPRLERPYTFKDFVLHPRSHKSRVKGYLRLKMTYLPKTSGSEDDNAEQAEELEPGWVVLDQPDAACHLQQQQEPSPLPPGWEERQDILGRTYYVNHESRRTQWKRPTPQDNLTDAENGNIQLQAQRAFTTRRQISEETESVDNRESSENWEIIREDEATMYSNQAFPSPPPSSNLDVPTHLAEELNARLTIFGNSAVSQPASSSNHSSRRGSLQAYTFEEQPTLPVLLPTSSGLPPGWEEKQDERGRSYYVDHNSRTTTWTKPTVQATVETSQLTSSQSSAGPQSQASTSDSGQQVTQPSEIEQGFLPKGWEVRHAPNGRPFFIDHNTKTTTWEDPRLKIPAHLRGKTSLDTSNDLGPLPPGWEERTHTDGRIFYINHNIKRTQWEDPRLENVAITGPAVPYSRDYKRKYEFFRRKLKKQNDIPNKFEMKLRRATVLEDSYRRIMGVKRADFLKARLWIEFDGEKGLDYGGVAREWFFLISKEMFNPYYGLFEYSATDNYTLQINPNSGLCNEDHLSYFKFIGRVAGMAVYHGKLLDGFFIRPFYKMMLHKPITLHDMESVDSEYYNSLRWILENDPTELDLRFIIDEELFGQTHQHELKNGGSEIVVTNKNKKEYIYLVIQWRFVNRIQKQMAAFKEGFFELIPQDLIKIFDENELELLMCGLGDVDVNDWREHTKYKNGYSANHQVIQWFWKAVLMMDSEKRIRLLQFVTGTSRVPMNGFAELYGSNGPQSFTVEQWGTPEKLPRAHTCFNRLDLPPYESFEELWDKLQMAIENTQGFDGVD

Row | Variant | effect of a mutation on the interaction
1 | P664S | decreasing interaction strength

Variants of: B2
Details: with gga1_human GGA1, Q9UJY5

Row | Variant | effect of a mutation on the interaction
2 | D1424H | decreasing interaction strength

Variants of: B3
Details: with ima3_human KPNA4, O00629
Sequence of ima3_human KPNA4, O00629 (O00629 whole entry): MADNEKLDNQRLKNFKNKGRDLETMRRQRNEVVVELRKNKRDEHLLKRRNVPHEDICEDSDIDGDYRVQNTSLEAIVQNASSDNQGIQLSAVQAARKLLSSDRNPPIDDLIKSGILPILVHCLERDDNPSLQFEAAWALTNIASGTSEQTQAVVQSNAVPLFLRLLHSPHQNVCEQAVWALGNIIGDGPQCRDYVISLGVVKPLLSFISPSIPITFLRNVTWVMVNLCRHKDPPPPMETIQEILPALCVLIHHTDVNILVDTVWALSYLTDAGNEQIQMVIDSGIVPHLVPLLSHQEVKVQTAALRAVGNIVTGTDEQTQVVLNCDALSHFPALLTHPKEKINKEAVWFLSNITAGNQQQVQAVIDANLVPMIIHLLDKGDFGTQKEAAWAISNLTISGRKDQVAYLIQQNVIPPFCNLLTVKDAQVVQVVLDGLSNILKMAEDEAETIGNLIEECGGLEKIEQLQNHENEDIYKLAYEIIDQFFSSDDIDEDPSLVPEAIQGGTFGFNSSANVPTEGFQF

Row | Variant | effect of a mutation on the interaction
3 | K160T | disrupting interaction strength

Variants of: B3
Details: with ima3_human KPNA4, O00629
Remark: another data set of the same source

Row | Variant | effect of a mutation on the interaction
4 | K160T | decreasing interaction strength

Variants of: B4
Details: with itsn1_human ITSN1, Q15811
Sequence of itsn1_human ITSN1, Q15811 (Q15811 whole entry): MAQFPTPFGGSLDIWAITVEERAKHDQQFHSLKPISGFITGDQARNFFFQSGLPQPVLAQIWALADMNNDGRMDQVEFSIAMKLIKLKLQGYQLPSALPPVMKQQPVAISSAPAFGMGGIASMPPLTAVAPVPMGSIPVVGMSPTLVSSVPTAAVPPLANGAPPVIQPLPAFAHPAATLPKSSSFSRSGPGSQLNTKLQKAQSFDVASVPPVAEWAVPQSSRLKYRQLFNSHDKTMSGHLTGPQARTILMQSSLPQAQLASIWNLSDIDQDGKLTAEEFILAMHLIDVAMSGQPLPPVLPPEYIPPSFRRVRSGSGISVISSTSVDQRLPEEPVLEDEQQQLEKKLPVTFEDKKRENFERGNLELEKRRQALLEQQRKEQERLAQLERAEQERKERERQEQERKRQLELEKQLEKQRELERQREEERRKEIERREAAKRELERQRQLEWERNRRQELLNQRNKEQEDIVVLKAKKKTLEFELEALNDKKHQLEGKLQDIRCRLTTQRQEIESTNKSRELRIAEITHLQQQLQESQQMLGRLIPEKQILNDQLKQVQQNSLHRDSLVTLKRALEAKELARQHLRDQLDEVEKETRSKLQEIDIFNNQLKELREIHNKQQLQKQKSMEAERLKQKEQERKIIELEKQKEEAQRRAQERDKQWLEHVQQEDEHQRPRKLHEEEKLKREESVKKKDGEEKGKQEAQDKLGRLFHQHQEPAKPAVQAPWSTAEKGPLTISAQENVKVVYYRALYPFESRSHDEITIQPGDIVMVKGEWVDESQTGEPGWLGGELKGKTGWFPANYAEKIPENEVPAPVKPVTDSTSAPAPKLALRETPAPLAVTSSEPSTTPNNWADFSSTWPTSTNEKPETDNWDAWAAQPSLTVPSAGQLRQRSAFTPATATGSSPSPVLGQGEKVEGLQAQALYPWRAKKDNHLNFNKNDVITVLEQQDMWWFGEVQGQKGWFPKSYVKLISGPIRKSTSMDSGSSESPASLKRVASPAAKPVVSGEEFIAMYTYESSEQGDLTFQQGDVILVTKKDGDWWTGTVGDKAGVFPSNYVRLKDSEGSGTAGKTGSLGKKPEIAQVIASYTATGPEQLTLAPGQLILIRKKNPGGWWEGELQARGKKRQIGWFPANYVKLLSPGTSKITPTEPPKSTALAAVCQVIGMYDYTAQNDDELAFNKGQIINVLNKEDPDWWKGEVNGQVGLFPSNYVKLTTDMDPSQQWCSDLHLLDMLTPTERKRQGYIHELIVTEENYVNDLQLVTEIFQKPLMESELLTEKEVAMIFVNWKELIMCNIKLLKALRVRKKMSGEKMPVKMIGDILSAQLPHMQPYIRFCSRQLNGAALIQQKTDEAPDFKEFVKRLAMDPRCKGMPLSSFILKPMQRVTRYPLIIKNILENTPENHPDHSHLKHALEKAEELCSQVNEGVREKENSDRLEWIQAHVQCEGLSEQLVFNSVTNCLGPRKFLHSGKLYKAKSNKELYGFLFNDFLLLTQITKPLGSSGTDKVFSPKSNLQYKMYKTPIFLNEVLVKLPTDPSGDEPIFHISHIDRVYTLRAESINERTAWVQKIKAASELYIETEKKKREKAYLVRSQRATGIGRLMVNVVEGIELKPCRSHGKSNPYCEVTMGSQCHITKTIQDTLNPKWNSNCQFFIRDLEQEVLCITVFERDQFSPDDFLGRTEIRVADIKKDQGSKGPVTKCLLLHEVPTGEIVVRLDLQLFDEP

Row | Variant | effect of a mutation on the interaction
5 | R620W | decreasing interaction strength

Variants of: B5
Details: with ppia_human PPIA

Row | Variant | effect of a mutation on the interaction
6 | P1180Q | decreasing interaction strength
